Results from publication PMC5773547.

Molecular target: His-tagged recombinant CHIKV nsP2-NT (1-454) (Chikungunya virus strain S 27)

His-tagged recombinant CHIKV nsP1-WT (1-535) (from UniProt Q8JUX6 1-535) (enzyme)
ATPase activity of nsP2-NT (0.2 μg) with nsP1-WT (0.6 μg) against nsP2-NT alone, TLC assay with [γ-P32] ATP, release of free Pi: 1.5 fold | ATPase activity of nsP2-NT (1 μg) with nsP1-WT (1 μg), colorimetric malachite green assay, Pi release (approximately 86 μM for nsP2-NT alone): 174 µM
